The supplement of paper PMC10724198
± gives the standard deviation of the averaged measurements.

Legend:
[1] = system: Saccharomyces cerevisiae; test: protein stability index of tFT-peptide fusion (C-terminal peptide) (PSI (0-1 scale)); higher = more stable (slower turnover); details: genetic background: wild type; temperature: 30 C
[2] = system: Saccharomyces cerevisiae; test: as above
Protocol: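 MPS profiling in S. cerevisiae of the tFT-X12 degron library: putative degron peptides plus stable controls, 12 aa, fused to the C-terminus of a sfGFP-mCherry timer. Cells are FACS-sorted into 8 mCherry/sfGFP bins and deep-sequenced. PSI runs from 0 (unstable) to 1 (stable). Backgrounds are wild type, das1Δ and doa10Δ at 30 °C, and wild type, das1Δ, cdc34-1 and cdc53-1 at 37 °C; 2-3 technical replicates each.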

[3] = genetic background: cdc34-1, temperature: 37 C
[4] = genetic background: cdc53-1, temperature: 37 C
[5] = genetic background: das1 deletion, temperature: 30 C
[6] = genetic background: das1 deletion, temperature: 37 C
[7] = genetic background: doa10 deletion, temperature: 30 C
[8] = genetic background: wild type, temperature: 30 C
[9] = genetic background: wild type, temperature: 37 C
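Also: PSI is a weighted mean of sequencing reads over stability bins, variants kept only with over 10 reads, mCherry proximal and sfGFP distal, peptide attached via GGGS linker.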

Row | Sequence | protein stability index [1] | protein stability index [2, 3] | protein stability index [2, 4] | protein stability index [2, 5] | protein stability index [2, 6] | protein stability index [2, 7] | protein stability index [2, 8] | protein stability index [2, 9]
1 | WSSWFLWVIFRL | 0.348 ± 0.02 | 0.176 ± 0.011 | 0.173 ± 0.023 | 0.34 ± 0.035 | 0.433 ± 0.056 | 0.459 ± 0.0077 | 0.289 ± 0.035 | 0.288 ± 0.035
2 | WSWCLDVVCFTS | 0.471 ± 0.0059 | 0.498 ± 0.036 | 0.547 ± 0.027 | 0.45 ± 0.021 | 0.563 ± 0.019 | 0.446 ± 0.011 | 0.439 ± 0.011 | 0.531 ± 0.024
3 | WVGWVVVLGCVG | 0.489 ± 0.013 | 0.373 ± 0.027 | 0.42 ± 0.012 | 0.29 ± 0.026 | 0.47 ± 0.013 | 0.25152 ± 0.00025 | 0.282 ± 0.018 | 0.449 ± 0.022
4 | WVRIIIKLRASL | 0.315 ± 0.041 | 0.444 ± 0.011 | 0.4476 ± 0.0035 | 0.34 ± 0.021 | 0.41 ± 0.0083 | 0.274 ± 0.0048 | 0.253 ± 0.011 | 0.345 ± 0.034
5 | WVSFFILYCVYR | 0.232 ± 0.03 | 0.274 ± 0.016 | 0.345 ± 0.024 | 0.253 ± 0.04 | 0.445 ± 0.017 | 0.23 ± 0.0055 | 0.237 ± 0.018 | 0.378 ± 0.011
6 | WWADRLVGVCIV | 0.491 ± 0.011 | 0.55 ± 0.034 | 0.539 ± 0.026 | 0.439 ± 0.024 | 0.587 ± 0.0076 | 0.38961 ± 2.3e-05 | 0.422 ± 0.023 | 0.5359 ± 0.00088
7 | WYYTWKQLVMIV | 0.0294 ± 0.022 | 0.0845 ± 0.01 | 0.148 ± 0.0062 | 0.106 ± 0.023 | 0.186 ± 0.0072 | 0.0276 ± 0.0037 | 0.0263 ± 0.0054 | 0.0433 ± 0.021
8 | YARFWYSKAFIC | 0.2 ± 0.013 | 0.455 ± 0.048 | 0.555 ± 0.011 | 0.581 ± 0.033 | 0.694 ± 0.025 | 0.12 ± 0.023 | 0.115 ± 0.012 | 0.169 ± 0.0034
9 | YCILGSYRLCVG | 0.36 ± 0.0049 | 0.337 ± 0.037 | 0.434 ± 0.073 | 0.259 ± 0.033 | 0.447 ± 0.018 | 0.2321 ± 0.00024 | 0.252 ± 0.033 | 0.427 ± 0.012
10 | YCSIQIQLVYGI | 0.424 ± 0.023 | 0.341 ± 0.0037 | 0.4103 ± 0.0034 | 0.302 ± 0.025 | 0.441 ± 0.0063 | 0.301 ± 0.0082 | 0.312 ± 0.013 | 0.396 ± 0.011
11 | YFFVCYFSLLVF | 0.177 ± 0.0081 | 0.0832 ± 0.019 | 0.139 ± 0.025 | 0.14 ± 0.032 | 0.231 ± 0.012 | 0.0967 ± 0.0036 | 0.119 ± 0.016 | 0.168 ± 0.03
12 | YFYIRLGIAYMM | 0.275 ± 0.027 | 0.421 ± 0.037 | 0.511 ± 0.056 | 0.436 ± 0.026 | 0.503 ± 0.019 | 0.197 ± 0.013 | 0.206 ± 0.019 | 0.264 ± 0.015
13 | YILRLMMEGICL | 0.4198 ± 0.0029 | 0.497 ± 0.012 | 0.545 ± 0.036 | 0.416 ± 0.033 | 0.48 ± 0.019 | 0.422 ± 0.038 | 0.409 ± 0.0083 | 0.464 ± 0.022
14 | YLFFVCLHLKAG | 0.302 ± 0.044 | 0.233 ± 0.03 | 0.335 ± 0.018 | 0.227 ± 0.031 | 0.417 ± 0.013 | 0.174 ± 0.0063 | 0.206 ± 0.018 | 0.3494 ± 0.00053
15 | YLRVRRPGSALV | 0.654 ± 0.23 | 0.7087 ± 0.0013 | 0.769 ± 0.028 | 0.63 ± 0.022 | 0.7643 ± 0.0014 | 0.629 ± 0.035 | 0.624 ± 0.0081 | 0.7277 ± 0.0017
16 | YNKIRNNEKKMT | 0.36 ± 0.017 | 0.664 ± 0.084 | 0.696 ± 0.026 | 0.674 ± 0.073 | 0.7121 ± 0.0016 | 0.1897 ± 0.0018 | 0.27 ± 0.055 | 0.457 ± 0.043
17 | YPSCPINFICLC | 0.417 ± 0.035 | 0.618 ± 0.0088 | 0.6992 ± 0.0053 | 0.585 ± 0.017 | 0.685 ± 0.01 | 0.29 ± 0.0056 | 0.308 ± 0.037 | 0.499 ± 0.0051
18 | YRNVLLVLNYWS | 0.491 ± 0.0064 | 0.447 ± 0.076 | 0.368 ± 0.029 | 0.428 ± 0.031 | 0.544 ± 0.0087 | 0.518 ± 0.0072 | 0.406 ± 0.022 | 0.51 ± 0.026
19 | YSIHYLRFFSLF | 0.133 ± 0.034 | 0.4734 ± 0.00049 | 0.6669 ± 0.0066 | 0.6143 ± 0.0048 | 0.726 ± 0.014 | 0.0685 ± 0.011 | 0.0874 ± 0.015 | 0.0998 ± 0.011
20 | YSMLGKLVRLVT | 0.285 ± 0.033 | 0.553 ± 0.05 | 0.662 ± 0.02 | 0.512 ± 0.025 | 0.63036 ± 0.00022 | 0.164 ± 0.004 | 0.2 ± 0.013 | 0.374 ± 0.015
21 | YVCLVWHRNFFS | 0.259 ± 0.0039 | 0.617 ± 0.014 | 0.704 ± 0.019 | 0.605 ± 0.011 | 0.73 ± 0.048 | 0.14 ± 0.0063 | 0.155 ± 0.025 | 0.228 ± 0.076
22 | YVSSFSLVVLLS | 0.228 ± 0.029 | 0.425 ± 0.0077 | 0.478 ± 0.024 | 0.377 ± 0.033 | 0.506 ± 0.0069 | 0.108 ± 0.015 | 0.125 ± 0.014 | 0.217 ± 0.017
23 | YVVCFFFKLFYF | 0.382 ± 0.046 | 0.271 ± 0.012 | 0.364 ± 0.024 | 0.299 ± 0.025 | 0.4172 ± 0.0025 | 0.256 ± 0.0065 | 0.244 ± 0.025 | 0.341 ± 0.024
24 | YVVYLQVCWMRS | 0.227 ± 0.0044 | 0.072 ± 0.025 | 0.206 ± 0.076 | 0.134 ± 0.019 | 0.23 ± 0.0061 | 0.0911 ± 0.019 | 0.104 ± 0.035 | 0.186 ± 0.024
